This data set is described as follows: soluble on expression in E. coli; label from the status in PepcDB or PDB records.
Take “MNVTTPEVAFREYQTNCLASYISADPDITPSNLILQGYSGTGKTYTLKKYFNANPNLHAVWLEPVELVSWKPLLQAIARTVQYKLKTLYPNIPTTDYDPLQVEEPFLLVKTLHNIFVQYESLQEKTCLFLILDGFDSLQDLDAALFNKYIKLNELLPKDSKINIKFIYTMLETSFLQRYSTHCIPTVMFPRYNVDEVSTILVMSRCGELMEDSCLRKRIIEEQITDCTDDQFQNVAANFIHLIVQAFHSYTGNDIFALNDLIDFKWPKYVSRITKENIFEPLALYKSAIKLFLSTDDNLSENGQGESAITTNRDDLENSQTYDLSIISKYLLIASYICSYLEPRYDASIFSRKTRIIQGRAAYGRRKKKEVNPRYLQPSLFAIERLLAIFQAIFPIQGKAESGSLSALREESLMKANIEVFQNLSELHTLKLIATTMNKNIDYLSPKVRWKVNVPWEIIKEISESVHFNISDYFSDIHE”: the “soluble on expression in E. coli” value is “soluble”.

Take “MKTIGLIGGMSWESTTSYYQLINETIKKELGGLHSAKILLYSVDFAEIEHYQASDDWAKSAEVLSQIAQKLEQAGADFIVICTNTMHKVAPQIQKQIAIPILHIAQATAEAILENGIQKV”: the “soluble on expression in E. coli” value is on record as “not soluble”.

Regarding “MSLSIPTIKQVRAFVLRGGGADYHDQGDGHWIDDHISTPMGKYPEYRQSRRSFGINVLGTLVVEIEASDGNVGFAVTTGGEPAAYIVEKHLARFLEGARVTDIERIWDQMYNSTLYYGRKGLVINTISGVDLALWDLLGKVRREPVHQLLGGAVRDELQFYATGARPDLAQKMGFIGGKMPLHHGPSEGEEGLKKNLEELATMRERVGPDFWLMFDCWMSLDLNYATRLARGAREYGLKWIEEALPPDDYWGYAELRRNAPTGMMVTTGEHEATRWGFRMLLEMGCCDIIQPDVGWCGGVTELLKISALADAHNALVVPHGSSVYSYHFVATRQNSPFAEFLMMAPKADQVVPMFHPQLLGEPVPENGRMRLSRLDQPGFGVTLNPECQLHRPYTHEGHHHHHH”, the “soluble on expression in E. coli” value is listed as “soluble”.

As for “MKKQHDTIIVLDFGSQYNQLIARRIREFGVYSELHPHTITAEEIKAMNPKGIIFSGGPNSVYGEGALHCDEKIFDLGLPIFGICYGMQLMTQQFGGTVERANHREYGKAVLKVENESKLYANLPEEQVVWMSHGDLVTGLPEGFVVDATSESCPIAGMSNEAKNLYGVQFHPEVRHSEHGNDLIKNFVFGVCGCSEGWNMENFIEVELEKIRETVGDKKVLCALSGGVDSSVVAVLIHKAIGDQLTCIFVDHGLLRKGEAEGVMKTFSEGFHMNVIKVDAKERFMNKLKGVEDPEQKRKIIGNEFIYVFDDEASKLEGMDFLAQGTLYTDIVESGTATAQTIKSHHNVGGLPEDMQFKLIEPLNTLFKDEVRVLGSELGIPDEIVWRQPFPGPGLGIRVLGEITEEKLEIVRESDAILREEIIKAGLDREIWQYFTALPGMRSVGVMGDERTYDYTVGIRAVTSIDGMTADWARIPWDVLEKISVRIVNEVKHVNRIVYDVTSKPPATIEWE”, the “soluble on expression in E. coli” value is “not soluble”.

Regarding “MRKSDREAFLSSVLGNEQPPAHLARTVIEEKLRNAIIDGSLPSGTALRQQELATLFGVSRMPVREALRQLEAQSLLRVETHKGAVVAPLITEDAVDAYALRILLESEALRLSIPLLDADDLAAAASYIEQLEVETDFGQIGRLNRMFHLSLYAKTHNKRLMRLVEEGLNEEERFLRFNLSSMGLGKLSQDDHWQLLRLAEQKAVEPCVEALQYHLNRGVQAVTQYLQSQKAGNVKPARTKKNTPA”, the “soluble on expression in E. coli” value was “soluble”.

Consider “MGSSHHHHHHSSGLVPRGSHMASAASYPPIKNTKVGLALSSHPLASEIGQKVLEEGGNAIDAAVAIGFALAVVHPAAGNIGGGGFAVIHLANGENVALDFREKAPLKATKNMFLDKQGNVVPKLSEDGYLAAGVPGTVAGMEAMLKKYGTKKLSQLIDPAIKLAENGYAISQRQAETLKEARERFLKYSSSKKYFFKKGHLDYQEGDLFVQKDLAKTLNQIKTLGAKGFYQGQVAELIEKDMKKNGGIITKEDLASYNVKWRKPVVGSYRGYKIISMSPPSSGGTHLIQILNVMENADLSALGYGASKNIHIAAEAMRQAYADRSVYMGDADFVSVPVDKLINKAYAKKIFDTIQPDTVTPSSQIKPGMGQLHEGSN”, for which the “soluble on expression in E. coli” value was “soluble”.

On to “MAVGGGIGGLLLVGLFLLLGGNPAEIDQVLGGDQTQIESGESTGAGDFDHCQTGADANASDDCRLYYTSFSVNEMWQTLLPAQAGIEYTEPTLTLFKNSTQTGCGFASASTGPFYCPSDQDAYFDLTFFDQMRQFGAENAPLAQMYIVAHEYGHHVQNLEGTLGLSNYNDPGADSNAVKIELQADCYAGIWANHSSEGPDPLLQPITESELDSALLAASAVGDDNIQQRSGGDVNPESWTHGSSQQRKDAFLAGYNTGQMSACDFLGRGVYNDA”, for which the “soluble on expression in E. coli” value was “not soluble”.

As for “PKVSVIMTSYNKSDYVAKSISSILSQTFSDFELFIMDDNSNEETLNVIRPFLNDNRVRFYQSDISGVKERTEKTRYAALINQAIEMAEGEYITYATDDNIYMPDRLLKMVRELDTHPEKAVIYSASKTYHLNENRDIVKETVRPAAQVTWNAPCAIDHCSVMHRYSVLEKVKEKFGSYWDESPAFYRIGDARFFWRVNHFYPFYPLDEELDLNYITDQSIHFQLFELEKNEFVRNLPPQRNCRELRESLKKLGMG”, the “soluble on expression in E. coli” value is reported as “soluble”.

On to “MAHHHHHHMLRFRVRLPKGKEPVSMDLDGTTTWGSFVQSISSLTDVPCSQLRILSGFPPRPVEVGDGAASIASVLPGGGNVIVQVGEADVVKGKTEGRYVPPVDGKWHFVRRVCPSDNSCLFHAAAYVLRNKSRVDGPSLRKECADIVQAYPNVFNEKTILDRPNREYVDFIRNPNAWGGAIELMVLSFLTQTEIVALDLTSSNVLHFGEDNNYTVRAYVVFNGQHYDAIAMNPMFNSPQESEDQVLFSSTDAEVLNRARRFVADEAKKLRLR”, for which the “soluble on expression in E. coli” value is recorded as “soluble”.

As to “MGPAPRVLELFYDVLSPYSWLGFEVLCRYQHLWNIKLKLRPALLAGIMKDSGNQPPAMVPHKGQYILKEIPLLKQLFQVPMSVPKDFFGEHVKKGTVNAMRFLTAVSMEQPEMLEKVSRELWMRIWSRDEDITESQNILSAAEKAGMATAQAQHLLNKISTELVKSKLRETTGAACKYGAFGLPTTVAHVDGKTYMLFGSDRMELLAYLLGEKWMGPVPPTLNARL”, the “soluble on expression in E. coli” value is “soluble”.

In the case of “MSPHPQPAPEPVIQYIASCKLPTPWGEFVMHGFEEESGQEHVALTLGEVGDGLPVLARLHSECLTGDALFSLRCDCGFQLEAAMEAISKAGRGALLYLRQEGRGIGLINKIRAYKLQDGGADTVEANERLGFPADMRDFRIARHMLAHLGIGSVKVMTNNPRKLATLEAAGIAVVERVPLQVGRNPYNDRYLDTKAAKLGHMLLKLEHHHHHH”, the “soluble on expression in E. coli” value was “soluble”.

With “MGSDKIHHHHHHMEKTLVIEHDGEKAVVWETPQIFSENDYDYEVLEKALENTGGPLKEWRKKKYQEYKEWGFPRWKRCNLDGMSLPELSFKRIDLDVDISLLEKLDFEGAHRKFVLLGDTFFTDFRVYGDGKHMMRFDGDGIENVLVVVEKEAEIYKLSSTDRFRNTVMRILVKKNASLKFFNLDFFGNFSFDNVFIVLEEGARLVLRDFKAFGYRKTGHILVKLNKSSKADMKSFFYQNGSGITDLLYLMRFEGEDAEGKLKGNGVVDGAGKIVFRGILDVKRGSKNIVAEETEHTLVLSPDARMDAIPSLWVDENDVTASHSASSSSLDEDELFYLMTRGVDEIESKKLIVRGVFNELLDELDESVKGEVENVVNRIV”, the “soluble on expression in E. coli” value is recorded as “not soluble”.

For the sequence “MHDLDRNEDRLRGTYDFPFEFHHIDHNHPRYVMSYHWHVEYEIIRILDGSLTVTLDEKSFTATAGDIIFVHSGILHSGIPEDCVYQCIVFDGNTFLKNNSVCAGYMQKIIHQEILIYHHFTPKYVDICATVNSLFDALWKKPSGYELSVLGQFYHFFGLIFGNHYYLESVTRARRDYKRILQLKQVLDFIEHNYASPLTLQQLSASVSMSPKYFCRFFSEMTHQTPMDYLNHQRIEQACYQLSTTDDSITEIAYRNGFNDLSYFIRTFKKYKGITPGKYKKA”, the “soluble on expression in E. coli” value is “not soluble”.

Consider “MQSPPHDPASALAIRNHYRQSQSRAARLRLLVDTGQELIQLPPEAMRKCVLQRACAFVAMDHGLLLEWGADNGVQTTARHGSKERLSTLETTADPLAIGPQWLERPGTHLPCVLLLPLRGADEGSFGTLVLANSVAISAPDGEDIESLQLLATLLAAHLENNRLLEALVARDRT”, for which the “soluble on expression in E. coli” value was “not soluble”.

On to “KKVVFFGVGAVGATFAEQFFNSKYDFKILCDNERKKRYLEEGFIINGKRYDFDYVTKDEYKQEADFIIIGLKYNNLKENIKELDGLVGKNTVIMSLLNGVDSEEIIGERFGIEKMVYSYVTNIDAKKINNNIIHTTNGIIVFGNKDNSEDRKTNIITEVFDDVNIEYTLSKDIQRDMWWKYMVNI”, for which the “soluble on expression in E. coli” value is reported as “not soluble”.

As to “MAKNKKLFEYLSQHAETISSTWYETIEETDPNSIYASTDPVVIHNLKSQNLAFNYKINRIFIDDEDVYLPILKEWAFEVTQDQEHLKTPIHYIIREFVRVRDLYVSYVKEFVHLNQNTVKSEEAEDLYHALIKAFDLVIHIFIEEMYKNTSLQLQAQKDMITELSAPVIVLFHSVGLLPLIGDIDTVRAKLIMENTLHQCAKKKVTQLYIDLSGVAVIDTMVAHQLFSLIEALRLIGVSSTLSGIRPEIAQTAVQLGLSFEGISLRSTLASAIASDLKLKKV”, the “soluble on expression in E. coli” value is reported as “not soluble”.

Turning to “MPHPAPNAAAPRVHIIGAGMAGLACAVRLVSHGRAVSLHEAAGQAGGRCRSFVDASLDRLIDNGNHLLLSGNRAVNAFLATIGASDRLDGPERARFPFLDVETGERWCLTPSAGPVPWWLLRADRRIPGTRARDYLEGLKLARASDADRVADLLTPGTPLYRRFWAPLTVGVLNAAPEEAAAALLWPVIKETFGRGEAACRPRMARNGLSDSFVTPALAWLTARGAEIAFNHRLRAIEYGDGRPAALVFSEETPLRLGPADQVVLAVPPAVAAGLLPGLTVPEGSRCIVNAHFRLDHAPEGFADDFEGPLGVIGGTAEWLFVRGDVASVTVSAADALAALDPDEIAARIWRDVALALGLDAAARPPVRIIKEKRATFAQTPDQLCRRPPTRPPGYGLCLAGDWTHTGLPATIEGALRSGEAAADAALHWRFTLEHHHHHH”, the “soluble on expression in E. coli” value was “not soluble”.

“MGSDKIHHHHHHMKVVAVGGGTGLSTLLKGLKNIDSFEITAVVSVTDEGGSSGKLRKELNVPPPGDVRNNIVALAKDEDLLAKLMSYRFSEGSFKGHSLGNLIIAALTKIEGSFSEAIRILERVLAIKGRVLPVSEDHARLVARFEDGEEVIGETNIVRKGGKIVEVRLDRPIDALPEVLEAIERADIIIFGPGSLYTSIITNVLVNGVKDAIKKSKAKKIYVCNLMTQPGETTGYRVSDHVKELERYLEQSVDFVLVNTRKPSEEVLERYRKEGSDFVEIDAENIQNTILAEPFLVEIVDPSDGQRKIRHDSVKLADVIERISRW”: the “soluble on expression in E. coli” value is reported as “not soluble”.

On to “KDCASDGTLSAVGSLETPEKKQSESSRGRKRKAENQNESSQGKSIGGRGHKISDYFEYQGGNGSSPVRGIPPAIRSPQNSHSHSTPSSSVRPNSPSPTALAFGDHPIVQPKQLSFKIIQTDLTMLKLAALESNKIQDLEKKEGRIDDLLRANCDLRRQIDEQQKLLEKYKERLNKCISMSKKLLIEKSTQEKLSSREKSMQDRLRLGHFTTVRHGASFTEQWTDGFAFQNLVKQQEWVNQQREDIERQRKLLAKRKPPTANNSQAPSTNSEPKQRKNKAVNGAENDPFVRPNLPQLLTLAEYHEQEEIFKLRLGHLKKEEAEIQAELERLERVRNLHIRELKRINNEDNSQFKDHPTLNERYLLLHLLGRGGFSEVYKAFDLYEQRYAAVKIHQLNKSWRDEKKENYHKHACREYRIHKELDHPRIVKLYDYFSLDTDTFCTVLEYCEGNDLDFYLKQHKLMSEKEARSIVMQIVNALRYLNEIKPPIIHYDLKPGNILLVDGTACGEIKITDFGLSKIMDDDSYGVDGMDLTSQGAGTYWYLPPECFVVGKEPPKISNKVDVWSVGVIFFQCLYGRKPFGHNQSQQDILQENTILKATEVQFPVKPVVSSEAKAFIRRCLAYRKEDRFDVHQLANDPYLLPHMRRSNSSGNLHMAGLTASPTPPSSSIITY”, for which the “soluble on expression in E. coli” value is recorded as “soluble”.

For the origin of these results see the DeepSol protein solubility set.
